Consider four sequences from the supplement of paper PMC5998384.

The subject of data set [1] is HeLa Kyoto. As to the kind of experiment: solubility in G1/S (NP-40 vs SDS abundance) (log2 ratio); higher = more soluble. The conditions noted are these: cell cycle stage: G1/S.
The subject of data set [2] is HeLa Kyoto. As to the kind of experiment: melting temperature (median over replicates), in situ; higher = more thermally stable.
Data set [3] has as its system HeLa Kyoto. As to the kind of experiment: solubility change mitosis vs G1/S (difference of NP-40 vs SDS log2 ratios) (log2 ratio difference); higher = more soluble in mitosis.
Data set [4] relates to HeLa Kyoto. Put plainly: thermal stability score vs G1/S (z-score of summed log2 fold changes over temperatures); higher = more thermally stable than in G1/S.
The mark [5] stands for this setting: cell cycle stage: early G1 (4.5 h after nocodazole release).
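For melting temperature (median over replicates), in situ in this document: HeLa Kyoto cells synchronized by double thymidine or nocodazole block, proteins quantified by TMT10plex mass spectrometry, three independent biological replicates.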
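For solubility change mitosis vs G1/S (difference of NP-40 vs SDS log2 ratios) in this document: synchronized HeLa Kyoto cells (double thymidine block for G1/S, nocodazole release for mitosis), protein amounts in NP-40 versus SDS lysates quantified by mass spectrometry, three biological replicates.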
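For solubility in G1/S (NP-40 vs SDS abundance) in this document: HeLa Kyoto cells arrested at G1/S by double thymidine block, proteins quantified by TMT10plex mass spectrometry in mild NP-40 versus SDS extracts, three biological replicates.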
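For thermal stability score vs G1/S (z-score of summed log2 fold changes over temperatures) in this document: synchronized HeLa Kyoto cells, proteins quantified by TMT10plex mass spectrometry, three biological replicates, mitosis taken 0.5 h after nocodazole release, G1/S directly after double thymidine block.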

On to “MNGRVDYLVTEEEINLTRGPSGLGFNIVGGTDQQYVSNDSGIYVSRIKENGAAALDGRLQEGDKILSVNGQDLKNLLHQDAVDLFRNAGYAVSLRVQHRLQVQNGPIGHRGEGDPSGIPIFMVLVPVFALTMVAAWAFMRYRQQL [SYNJ2BP]”, for which the “solubility in G1/S (log2)” value with HeLa Kyoto [1] was found to be 0.0992. Also, the melting temperature in the data set on HeLa Kyoto [2] (cell cycle stage: G1/S) and with HeLa Kyoto [2] (cell cycle stage: mitosis) was 51.6 °C in each case. In the data set on HeLa Kyoto [3], the “solubility change mitosis (log2)” value was -0.0614. The results for the thermal stability score in the data set with HeLa Kyoto [4] (setting [5]) and with HeLa Kyoto [4] (cell cycle stage: mitosis) were 1.82 and 1.39, respectively.

On to “MNHDFQALALESRGMGELLPTKKFWEPDDSTKDGQKGIFLGDDEWRETAWGASHHSMSQPIMVQRRSGQGFHGNSEVNAILSPRSESGGLGVSMVEYVLSSSPADKLDSRFRKGNFGTRDAETDGPEKGDQKGKASPFEEDQNRDLKQGDDDDSKINGRGLPNGMDADCKDFNRTPGSRQASPTEVVERLGPNTNPSEGLGPLPNPTANKPLVEEFSNPETQNLDAMEQVGLESLQFDYPGNQVPMDSSGATVGLFDYNSQQQLFQRTNALTVQQLTAAQQQQYALAAAQQPHIAGVFSAGLAPAAFVPNPYIISAAPPGTDPYTAAGLAAAATLAGPAVVPPQYYGVPWGVYPANLFQQQAAAAANNTASQQAASQAQPGQQQVLRAGAGQRPLTPNQGQQGQQAESLAAAAAANPTLAFGQGLATGMPGYQVLAPTAYYDQTGALVVGPGARTGLGAPVRLMAPTPVLISSAAAQAAAAAAAGGTASSLTGSTNGLFRPIGTQPPQQQQQQPSTNLQSNSFYGSSSLTNSSQSSSLFSHGPGQPGSTSLGFGSGNSLGAAIGSALSGFGSSVGSSASSSATRRESLSTSSDLYKRSSSSLAPIGQPFYNSLGFSSSPSPIGMPLPSQTPGHSLTPPPSLSSHGSSSSLHLGGLTNGSGRYISAAPGAEAKYRSASSTSSLFSSSSQLFPPSRLRYNRSDIMPSGRSRLLEDFRNNRFPNLQLRDLIGHIVEFSQDQHGSRFIQQKLERATPAERQMVFNEILQAAYQLMTDVFGNYVIQKFFEFGSLDQKLALATRIRGHVLPLALQMYGCRVIQKALESISSDQQVISEMVKELDGHVLKCVKDQNGNHVVQKCIECVQPQSLQFIIDAFKGQVFVLSTHPYGCRVIQRILEHCTAEQTLPILEELHQHTEQLVQDQYGNYVIQHVLEHGRPEDKSKIVSEIRGKVLALSQHKFASNVVEKCVTHASRAERALLIDEVCCQNDGPHSALYTMMKDQYANYVVQKMIDMAEPAQRKIIMHKIRPHITTLRKYTYGKHILAKLEKYYLKNSPDLGPIGGPPNGML [PUM2]”, for which the “solubility in G1/S (log2)” value with HeLa Kyoto [1] turned out to be 0.446. For the same sequence, the melting temperature was 54 °C in the data set with HeLa Kyoto [2] (cell cycle stage: G1/S) and 50.2 °C in the data set on HeLa Kyoto [2] (cell cycle stage: mitosis). For the same sequence, the “solubility change mitosis (log2)” value in the data set on HeLa Kyoto [3] was -0.11. For the same sequence, the thermal stability score in the data set with HeLa Kyoto [4] (setting [5]) amounted to 1.8; in the data set on HeLa Kyoto [4] (cell cycle stage: mitosis) it was 1.49.

Regarding “MNKLRQSFRRKKDVYVPEASRPHQWQTDEEGVRTGKCSFPVKYLGHVEVDESRGMHICEDAVKRLKAERKFFKGFFGKTGKKAVKAVLWVSADGLRVVDEKTKDLIVDQTIEKVSFCAPDRNFDRAFSYICRDGTTRRWICHCFMAVKDTGERLSHAVGCAFAACLERKQKREKECGVTATFDASRTTFTREGSFRVTTATEQAEREEIMKQMQDAKKAETDKIVVGSSVAPGNTAPSPSSPTSPTSDATTSLEMNNPHAIPRRHAPIEQLARQGSFRGFPALSQKMSPFKRQLSLRINELPSTMQRKTDFPIKNAVPEVEGEAESISSLCSQITNAFSTPEDPFSSAPMTKPVTVVAPQSPTFQANGTDSAFHVLAKPAHTALAPVAMPVRETNPWAHAPDAANKEIAATCSGTEWGQSSGAASPGLFQAGHRRTPSEADRWLEEVSKSVRAQQPQASAAPLQPVLQPPPPTAISQPASPFQGNAFLTSQPVPVGVVPALQPAFVPAQSYPVANGMPYPAPNVPVVGITPSQMVANVFGTAGHPQAAHPHQSPSLVRQQTFPHYEASSATTSPFFKPPAQHLNGSAAFNGVDDGRLASADRHTEVPTGTCPVDPFEAQWAALENKSKQRTNPSPTNPFSSDLQKTFEIEL [NUMB]”, the “solubility in G1/S (log2)” value with HeLa Kyoto [1] was -0.0586. Also, the melting temperature with HeLa Kyoto [2] (cell cycle stage: G1/S) worked out at 51.9 °C; in the data set on HeLa Kyoto [2] (cell cycle stage: mitosis) it was 51.4 °C. In the data set with HeLa Kyoto [3], the “solubility change mitosis (log2)” value was -0.132. Besides, the thermal stability score with HeLa Kyoto [4] (setting [5]) was found to be 0.0697; in the data set on HeLa Kyoto [4] (cell cycle stage: mitosis) it was 0.793.

As for “MNLFNLDRFRFEKRNKIEEAPEATPQPSQPGPSSPISLSAEEENAEGEVSRANTPDSDITEKTEDSSVPETPDNERKASISYFKNQRGIQYIDLSSDSEDVVSPNCSNTVQEKTFNKDTVIIVSEPSEDEESQGLPTMARRNDDISELEDLSELEDLKDAKLQTLKELFPQRSDNDLLKLIESTSTMDGAIAAALLMFGDAGGGPRKRKLSSSSEPYEEDEFNDDQSIKKTRLDHGEESNESAESSSNWEKQESIVLKLQKEFPNFDKQELREVLKEHEWMYTEALESLKVFAEDQDMQYVSQSEVPNGKEVSSRSQNYPKNATKTKLKQKFSMKAQNGFNKKRKKNVFNPKRVVEDSEYDSGSDVGSSLDEDYSSGEEVMEDGYKGKILHFLQDASIGELTLIPQCSQKKAQKITELRPFNSWEALFTKMSKTNGLSEDLIWHCKTLIQERDVVIRLMNKCEDISNKLTKQVTMLTGNGGGWNIEQPSILNQSLSLKPYQKVGLNWLALVHKHGLNGILADEMGLGKTIQAIAFLAYLYQEGNNGPHLIVVPASTIDNWLREVNLWCPTLKVLCYYGSQEERKQIRFNIHSRYEDYNVIVTTYNCAISSSDDRSLFRRLKLNYAIFDEGHMLKNMGSIRYQHLMTINANNRLLLTGTPVQNNLLELMSLLNFVMPHMFSSSTSEIRRMFSSKTKSADEQSIYEKERIAHAKQIIKPFILRRVKEEVLKQLPPKKDRIELCAMSEKQEQLYLGLFNRLKKSINNLEKNTEMCNVMMQLRKMANHPLLHRQYYTAEKLKEMSQLMLKEPTHCEANPDLIFEDMEVMTDFELHVLCKQYRHINNFQLDMDLILDSGKFRVLGCILSELKQKGDRVVLFSQFTMMLDILEVLLKHHQHRYLRLDGKTQISERIHLIDEFNTDMDIFVFLLSTKAGGLGINLTSANVVILHDIDCNPYNDKQAEDRCHRVGQTKEVLVIKLISQGTIEESMLKINQQKLKLEQDMTTVDEGDEGSMPADIATLLKTSMGL [SMARCAD1]”, the “solubility in G1/S (log2)” value in the data set on HeLa Kyoto [1] is -0.1. Also, the melting temperature in the data set on HeLa Kyoto [2] (cell cycle stage: G1/S) was found to be 48.4 °C; in the data set with HeLa Kyoto [2] (cell cycle stage: mitosis), 49.7 °C. In addition, in the data set on HeLa Kyoto [3], the “solubility change mitosis (log2)” value is -0.124. Further, the thermal stability score with HeLa Kyoto [4] (setting [5]) came to 2.18; with HeLa Kyoto [4] (cell cycle stage: mitosis) it was 3.89.
